T1: Ski2 (S. cerevisiae (endogenous in budding …, UniProt P35207 1-1287))
T1 sequence (looked up): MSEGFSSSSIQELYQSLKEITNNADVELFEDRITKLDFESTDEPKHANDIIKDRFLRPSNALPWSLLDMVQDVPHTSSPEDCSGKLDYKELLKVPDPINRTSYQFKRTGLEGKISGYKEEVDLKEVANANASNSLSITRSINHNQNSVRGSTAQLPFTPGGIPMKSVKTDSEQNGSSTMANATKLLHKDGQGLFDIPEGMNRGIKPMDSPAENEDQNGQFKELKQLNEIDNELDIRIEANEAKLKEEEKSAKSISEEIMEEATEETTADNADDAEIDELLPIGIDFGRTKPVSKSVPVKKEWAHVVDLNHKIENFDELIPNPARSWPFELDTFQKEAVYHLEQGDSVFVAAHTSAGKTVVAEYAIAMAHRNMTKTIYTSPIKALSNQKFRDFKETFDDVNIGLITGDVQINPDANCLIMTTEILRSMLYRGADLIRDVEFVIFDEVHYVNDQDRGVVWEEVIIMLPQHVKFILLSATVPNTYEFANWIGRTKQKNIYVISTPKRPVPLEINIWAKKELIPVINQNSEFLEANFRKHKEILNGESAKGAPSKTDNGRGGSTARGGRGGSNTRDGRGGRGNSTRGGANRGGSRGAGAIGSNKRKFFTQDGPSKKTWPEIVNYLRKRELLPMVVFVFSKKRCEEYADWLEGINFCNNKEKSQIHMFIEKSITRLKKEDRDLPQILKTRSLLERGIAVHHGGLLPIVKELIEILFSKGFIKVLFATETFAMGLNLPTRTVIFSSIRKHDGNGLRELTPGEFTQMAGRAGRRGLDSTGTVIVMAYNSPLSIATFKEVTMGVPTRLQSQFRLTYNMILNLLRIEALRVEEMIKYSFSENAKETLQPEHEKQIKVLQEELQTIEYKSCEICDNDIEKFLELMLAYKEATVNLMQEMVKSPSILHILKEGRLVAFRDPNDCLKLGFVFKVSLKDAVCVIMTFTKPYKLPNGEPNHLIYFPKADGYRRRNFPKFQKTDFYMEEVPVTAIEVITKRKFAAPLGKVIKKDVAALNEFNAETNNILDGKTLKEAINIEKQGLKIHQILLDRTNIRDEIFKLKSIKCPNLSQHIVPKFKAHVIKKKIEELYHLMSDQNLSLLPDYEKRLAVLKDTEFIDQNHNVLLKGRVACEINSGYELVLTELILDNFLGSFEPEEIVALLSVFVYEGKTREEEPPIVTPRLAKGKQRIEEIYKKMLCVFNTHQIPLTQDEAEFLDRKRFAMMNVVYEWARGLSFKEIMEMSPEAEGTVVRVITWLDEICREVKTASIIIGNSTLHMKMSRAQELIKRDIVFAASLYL

T2: Ski3 (S. cerevisiae (endogenous in budding …, UniProt P17883 1-1432))
T2 sequence (looked up): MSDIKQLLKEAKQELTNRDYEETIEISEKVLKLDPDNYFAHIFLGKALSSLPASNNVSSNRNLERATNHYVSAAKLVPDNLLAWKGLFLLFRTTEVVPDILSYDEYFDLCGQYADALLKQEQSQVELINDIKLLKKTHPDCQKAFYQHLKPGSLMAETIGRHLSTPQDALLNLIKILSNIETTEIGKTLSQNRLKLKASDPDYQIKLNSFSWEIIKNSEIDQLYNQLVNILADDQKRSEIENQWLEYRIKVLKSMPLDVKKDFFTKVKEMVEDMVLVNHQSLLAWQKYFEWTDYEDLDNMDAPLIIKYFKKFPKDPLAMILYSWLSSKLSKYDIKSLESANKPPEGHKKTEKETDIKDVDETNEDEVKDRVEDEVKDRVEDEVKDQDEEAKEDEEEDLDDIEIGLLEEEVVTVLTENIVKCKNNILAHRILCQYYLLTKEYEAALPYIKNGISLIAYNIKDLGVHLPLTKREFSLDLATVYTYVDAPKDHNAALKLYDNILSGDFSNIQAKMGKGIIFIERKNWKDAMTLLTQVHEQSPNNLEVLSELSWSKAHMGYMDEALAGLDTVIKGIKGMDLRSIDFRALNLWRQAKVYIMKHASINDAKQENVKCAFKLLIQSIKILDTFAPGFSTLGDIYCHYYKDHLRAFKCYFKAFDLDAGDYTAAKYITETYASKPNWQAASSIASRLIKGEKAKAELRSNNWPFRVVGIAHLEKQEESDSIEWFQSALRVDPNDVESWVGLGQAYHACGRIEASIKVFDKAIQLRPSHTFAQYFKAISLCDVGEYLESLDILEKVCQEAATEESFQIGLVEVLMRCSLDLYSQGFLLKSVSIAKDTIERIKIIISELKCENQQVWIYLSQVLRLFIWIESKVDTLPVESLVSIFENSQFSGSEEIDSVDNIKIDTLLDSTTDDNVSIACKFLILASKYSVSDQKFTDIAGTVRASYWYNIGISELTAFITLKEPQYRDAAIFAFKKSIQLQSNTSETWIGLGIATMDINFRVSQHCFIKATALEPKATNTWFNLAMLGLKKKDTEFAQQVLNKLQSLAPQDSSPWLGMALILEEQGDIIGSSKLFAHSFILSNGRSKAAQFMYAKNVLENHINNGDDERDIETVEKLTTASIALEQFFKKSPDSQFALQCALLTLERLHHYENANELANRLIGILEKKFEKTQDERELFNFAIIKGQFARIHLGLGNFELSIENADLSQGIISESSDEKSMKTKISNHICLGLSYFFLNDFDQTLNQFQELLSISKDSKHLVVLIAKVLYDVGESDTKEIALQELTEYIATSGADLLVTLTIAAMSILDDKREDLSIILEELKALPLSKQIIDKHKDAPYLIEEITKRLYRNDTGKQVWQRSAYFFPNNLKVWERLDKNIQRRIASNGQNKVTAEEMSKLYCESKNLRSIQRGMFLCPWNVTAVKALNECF


Tests used:
Test in all cases: native MS
native MS = target: the molecule itself
Ski2 = target: T1, Ski2
Ski3 = target: T2, Ski3

Row | Binder | stoichiometry N (native MS) | stoichiometry N (Ski2) | stoichiometry N (Ski3)
1 | Ctf4 (natural protein, UniProt Q01454 1-927, looked up) MVSVIDKLVFDFGGKTLVSLAPDNNTLCVANKNGLTKILKTNNPEEEPETLDSSKLVSSIKCYSNSHFLMTTMQGDALRYNIDSSQEELLARFALPLRDCCVIHSGKMAVFGGDDLELILLELDDETHKKHAIKIDEQVSQISYNSQMNILAVSMINGKVQIFSLTSTIPNKVHELNDYIVANSYDDTHRDKILSNMMDDIDKDNDNDLSETADPDENNVADPEFCAANRICTRVAWHPKGLHFALPCADDTVKIFSIKGYSLQKTLSTNLSSTKAHFIDLQFDPLRGTYIAAVDLNNKLTVWNWETSEIHYTREFKRKITNIAWKIQADSKTLDLVLGTWSGSIAIVQNLAESVVSNIPDQSVAESSTKHGLFVDSESDLENLEGNDDINKSDKLFSDITQEANAEDVFTQTHDGPSGLSEKRKYNFEDEEDFIDDDDGAGYISGKKPHNEHSYSRVHKTHSFPISLANTGKFRYMPFSPAGTPFGFTDRRYLTMNEVGYVSTVKNSEQYSITVSFFDVGRFREYHFEDLFGYDLCFLNEKGTLFGQSKTGQIQYRPHDSIHSNWTKIIPLQAGERITSVAATPVRVIVGTSLGYFRSFNQFGVPFAVEKTSPIVALTAQNYRVFSVHYSQFHGLSYSLSELGTSSKRYYKRECPLPMSLPNINSDMKKDANLDYYNFNPMGIKSLFFSSYGDPCIFGSDNTLLLLSKWRSPEESKWLPILDSNMEIWKMSGGKETTDIHVWPLALAYDTLNCILVKGKHIWPEFPLPLPSEMEIRMPVFVKSKLLEENKAILNKKNEIGADTEAEEGEEDKEIQIPVSMAAEEEYLRSKVLSELLTDTLENDGEMYGNENEVLAALNGAYDKALLRLFASACSDQNVEKALSLAHELKQDRALTAAVKISERAELPSLVKKINNIREARYEQQLK | 3 | – | –
2 | Ski8 (natural protein, UniProt Q02793 1-397, looked up) MSKVFIATANAGKAHDADIFSVSACNSFTVSCSGDGYLKVWDNKLLDNENPKDKSYSHFVHKSGLHHVDVLQAIERDAFELCLVATTSFSGDLLFYRITREDETKKVIFEKLDLLDSDMKKHSFWALKWGASNDRLLSHRLVATDVKGTTYIWKFHPFADESNSLTLNWSPTLELQGTVESPMTPSQFATSVDISERGLIATGFNNGTVQISELSTLRPLYNFESQHSMINNSNSIRSVKFSPQGSLLAIAHDSNSFGCITLYETEFGERIGSLSVPTHSSQASLGEFAHSSWVMSLSFNDSGETLCSAGWDGKLRFWDVKTKERITTLNMHCDDIEIEEDILAVDEHGDSLAEPGVFDVKFLKKGWRSGMGADLNESLCCVCLDRSIRWFREAGGK | – | 2 | 2
